According to publication doi:10.1101/2024.11.26.625568 (2024):

Target: microtubules (pig brain tubulin) (pig, UniProt P02550 1-451; Q767L7 1-444, Cy3 or Cy5 and biotin labels on a fraction of the tubulin | Cy3 or Cy5 and biotin labels on a fraction of the tubulin)
Sequence (P02550 other isoform, or with tags, fused parts or gaps, chain 1 of 2): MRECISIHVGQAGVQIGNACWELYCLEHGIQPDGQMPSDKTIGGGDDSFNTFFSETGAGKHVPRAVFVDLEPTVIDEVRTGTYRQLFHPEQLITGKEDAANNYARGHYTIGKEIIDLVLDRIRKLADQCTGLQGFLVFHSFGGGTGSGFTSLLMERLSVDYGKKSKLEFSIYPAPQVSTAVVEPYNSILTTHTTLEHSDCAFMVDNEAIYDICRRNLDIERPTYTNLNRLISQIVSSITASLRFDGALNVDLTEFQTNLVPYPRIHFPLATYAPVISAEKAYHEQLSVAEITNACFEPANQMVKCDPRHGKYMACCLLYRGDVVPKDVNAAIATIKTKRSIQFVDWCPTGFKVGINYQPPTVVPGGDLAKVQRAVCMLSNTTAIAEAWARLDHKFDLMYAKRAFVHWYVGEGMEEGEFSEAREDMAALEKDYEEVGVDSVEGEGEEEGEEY
Sequence (Q767L7 other isoform, or with tags, fused parts or gaps, chain 2 of 2): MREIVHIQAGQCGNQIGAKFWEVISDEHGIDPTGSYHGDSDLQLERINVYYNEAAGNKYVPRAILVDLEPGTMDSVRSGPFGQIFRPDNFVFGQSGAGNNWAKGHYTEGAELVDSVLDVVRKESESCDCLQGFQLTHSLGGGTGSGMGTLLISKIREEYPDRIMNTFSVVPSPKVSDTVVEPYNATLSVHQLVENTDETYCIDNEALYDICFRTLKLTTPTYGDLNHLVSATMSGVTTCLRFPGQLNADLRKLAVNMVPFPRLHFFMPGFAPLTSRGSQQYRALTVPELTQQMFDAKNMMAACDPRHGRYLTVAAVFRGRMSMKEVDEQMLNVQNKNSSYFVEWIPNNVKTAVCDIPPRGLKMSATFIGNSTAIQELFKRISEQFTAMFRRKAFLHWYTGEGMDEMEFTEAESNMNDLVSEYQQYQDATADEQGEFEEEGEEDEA

B1: NuMA Bonsai (other)
chain: MTLHATRGAALLSWVNSLHVADPVEAVLQLQDCSIFIKIIDRIHGTEEGQQILKQPVSERLDFVCSFLQKNRKHPSSPECLVSAQKVLEGSELELAKMTMLLLYHSTMSSKSPRDWEQFEYKIQAELAVILKFVLDHEDGLNLNEDLENFLQKAPVPSTCSSTFPEELSPPSHQAKREIRFLELQKVASSSSGNNFLSGSPASPMGDILQTPQFQMRRLKKQLADERSNRDELELELAENRKLLTEKDAQIAMMQQRIDRLALLNEKQAASPLEPKELEELRDKNESLTMRLHETLKQCQDLKTEKSQMDRKINQLSEENGDLSFKLREFASHLQQLQDALNELTEEHSKATQEWLEKQAQLEKELSAALQDKKCLEEKNEILQGKLSQLEEHLSQLQDNPPQEKGEVLGDVLQLETLKQEAATLAANNTQLQARVEMLETERGQQEAKLLAERGHFEEEKQQLSSLITDLQSSISNLSQAKEELEQASQAHGARLTAQVASLTSELTTLNATIQQQDQELAGLKQQAKEKQAQLAQTLQQQEQASQGLRHQVEQLSSSLKQKEQQLKEVAEKQEATRQDHAQQLATAAEEREASLRERDAALKQLEALEKEKAAKLEILQQQLQVANEARDSAQTSVTQAQREKAELSRKVEELQACVETARQEQHEAQAQVAELELQLRSEQQKATEKERVAQEKDQLQEQLQFQVATDALKSREPQAKPQLDLSIDSLDLSCEEGTPLSITSKLPRTQPDGTSVPGEPASPISQRLPPKVESLESLYFTPIPARSQAPLESSLDSLGDVFLDSGRKTRSARRRTTQIINITMTKKLDVEEPDSANSSFYSTRSAPASQASLRATSSTQSLARLGSPDYGNSALLSLPGYRPTTRSSARRSQAGVSSGAPPGRNSFYMGTCQDEPEQLDDWNRIAELQQRNRVCPPHLKTCYPLESRPSLSLGTITDEEMKTGDPQETLRRASMQPIQIAEGTGITTRQQRKRVSLEPHQGPGTPESKKATSCFPRPMTPRDRHEGRKQSTTEAQKKAAPASTKQADRRQSMAFSILNTPKKLGNSLLRRGASKKALSKASPNTRSGTRRSPRIATTTASAATAAAIGATPRAKGKAKH
  Kd: 279 nM
